Results reported in PMC2680043, “Characterization of a Novel Small Molecule Subtype Specific Estrogen-Related Receptor α Antagonist in MCF-7 Breast Cancer Cells” (PLoS ONE, 2009).

Columns and labels:
Assay in all cases: pull-down; biotinylated coactivator RID bound to streptavidin beaded agarose; in vitro translated [35S]-labeled ERRα added in 1x TBS with 10 µM Compound A, 4 hours at 4°C; SDS gel, phosphorimaging; compared with the DMSO sample
Settings in all cases: one partner purified
[1] = target: T1, PGC-1α receptor interaction domain (RID), aa 1-338, biotinylated (UniProt Q9UBK2 1-338, biotinylated (sites not given))
T1 construct: also called PGC-1α RID; PPARGC1A
T1 sequence (looked up): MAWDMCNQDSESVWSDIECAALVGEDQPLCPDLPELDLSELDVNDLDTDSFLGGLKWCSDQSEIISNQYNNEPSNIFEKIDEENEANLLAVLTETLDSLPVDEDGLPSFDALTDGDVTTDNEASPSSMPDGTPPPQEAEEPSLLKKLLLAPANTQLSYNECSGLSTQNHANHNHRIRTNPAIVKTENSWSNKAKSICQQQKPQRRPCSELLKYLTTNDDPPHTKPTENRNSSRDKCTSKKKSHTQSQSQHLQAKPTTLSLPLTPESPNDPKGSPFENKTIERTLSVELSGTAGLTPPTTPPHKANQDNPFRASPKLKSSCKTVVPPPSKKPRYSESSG

[2] = target: T2, AIB1 receptor interaction domain (RID), aa 557-773, biotinylated (UniProt Q9Y6Q9 557-773, biotinylated (sites not given))
T2 construct: also called AIB1 RID; SRC-3
T2 sequence (looked up): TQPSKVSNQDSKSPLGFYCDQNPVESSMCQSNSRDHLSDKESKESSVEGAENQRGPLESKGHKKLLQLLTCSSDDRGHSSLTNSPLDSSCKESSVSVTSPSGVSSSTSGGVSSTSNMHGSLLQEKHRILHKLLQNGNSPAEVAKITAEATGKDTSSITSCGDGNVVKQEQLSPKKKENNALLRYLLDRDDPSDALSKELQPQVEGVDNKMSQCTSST

[3] = target: T3, GRIP-1 receptor interaction domain (RID), aa 565-798, biotinylated (UniProt Q61026 565-798, biotinylated (sites not given))
T3 construct: also called GRIP-1 RID; SRC-2
T3 sequence (looked up): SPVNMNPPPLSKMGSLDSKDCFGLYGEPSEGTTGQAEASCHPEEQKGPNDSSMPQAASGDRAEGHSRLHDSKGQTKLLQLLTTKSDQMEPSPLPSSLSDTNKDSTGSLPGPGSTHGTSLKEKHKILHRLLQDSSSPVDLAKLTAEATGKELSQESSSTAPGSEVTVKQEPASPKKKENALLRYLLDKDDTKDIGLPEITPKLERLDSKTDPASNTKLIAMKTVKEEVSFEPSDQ

B1: full-length human estrogen-related receptor α (ERRα), [35S]methionine-labeled (receptor, UniProt P11474 1-423, looked up)
chain: MSSQVVGIEPLYIKAEPASPDSPKGSSETETEPPVALAPGPAPTRCLPGHKEEEDGEGAGPGEQGGGKLVLSSLPKRLCLVCGDVASGYHYGVASCEACKAFFKRTIQGSIEYSCPASNECEITKRRRKACQACRFTKCLRVGMLKEGVRLDRVRGGRQKYKRRPEVDPLPFPGPFPAGPLAVAGGPRKTAAPVNALVSHLLVVEPEKLYAMPDPAGPDGHLPAVATLCDLFDREIVVTISWAKSIPGFSSLSLSDQMSVLQSVWMEVLVLGVAQRSLPLQDELAFAEDLVLDEEGARAAGLGELGAALLQLVRRLQALRLEREEYVLLKALALANSDSVHIEDAEAVEQLREALHEALLEYEAGRAGPGGGAERRRAGRLLLTLPLLRQTAGKVLAHFYGVKLEGKVPMHKLFLEMLEAMMD
modifications: [35S]methionine label
notes: estrogen-related receptor alpha, human, full length, amplified from human brain Marathon-ready cDNA and cloned into pcDNA3.1(+); No tag is named for this construct; also called hERRα; ESRRA; source: in vitro translated (TnT coupled reticulocyte lysate system, Promega), [35S]methionine added
- percent reduction of the interaction with 10 µM Compound A against vehicle (DMSO) [1]: 81%
- percent reduction of the interaction with 10 µM Compound A against vehicle (DMSO) [2]: 35%
- percent reduction of the interaction with 10 µM Compound A against vehicle (DMSO) [3]: 29%
